Data: patent US20250355001A1, “METHOD FOR DETECTING A TAU PROTEIN FRAGMENT IN A SAMPLE” (GTINVENT LIMITED, priority 2022, published 2025)

Legend:
[1] = molecular target: T1, hT40 (T441, SEQ ID NO: 1) (Homo sapiens, UniProt P10636); assay: Biacore X100 SPR kinetics of scAbs for hT40; type: binding; details: Table 23; scAb captured, T441 (hT40) analyte; 1:1 model
T1 construct: Full length tau (hT40)
Procedure, shortened: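 Captured scAb on anti-HuCk CM5 surface (flow cell 1 as reference) in HBS-EP+, capture set for theoretical RMax 100 RU; hT40 injected multi-cycle (0.15625–100 nM) or single-cycle (6.25–100 nM), 120 s association, 420 s dissociation, glycine pH 2.0 regeneration. Kinetics and affinity from 1:1 binding model fit.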

dGA (SEQ ID NO: 5) = dGA (SEQ ID NO: 5) (Homo sapiens, UniProt P10636); assay: Biacore X100 SPR kinetics of scAbs for dGA; type: binding; details: Table 24, scAb, dGA analyte; for Kd: dissociation rate
Protocol: Surface plasmon resonance (SPR) is widely regarded as the gold standard for real time measurement of protein-protein interactions such as antibody binding. All SPR experiments were carried out using a Biacore X100 machine and HBS EP+ running buffer (GE Healthcare). A ‘capture’ method was followed for affinity measurements, where an anti-human constant kappa chain (HuCk) antibody was conjugated to the surface of a CM5 sensor chip using an amine coupling kit and scAb molecules were immobilised via their HuCk domain. Amine coupling is a very common approach for immobilising the ligand to the chip surface. The chip surface has a dextran matrix derivatised with carboxyl groups, which after activation with N-hydroxysuccinimide (NHS) and 1-ethyl-3-(3-dimethylaminopropyl) carbodiimide (EDC), form reactive succinimide esters which allows the covalent capturing of the ligand via any available primary amine groups (e.g. Lysine) on the ligand (in this case anti-HuCk antibody). The capture antibody was diluted 1/100 in 10 mM Sodium acetate buffer pH 5.0 and passed over the activated chip surface for a period of at least 420 s. Final ligand immobilisation levels over 12,000 RU were deemed to be satisfactory.
Following immobilisation, the level of each scAb to be captured was identified using the standard SPR equation with a theoretical RMax of 100 RU. Analyte MW refers to the molecular weight of hT40 or dGA/dGAE molecules, while ligand MW refers to the molecular weight of the scAbs tested. RL is the desired capture level and S refers to the stoichiometric ratio:
The scAb to be tested was added only to flow cell 2 so that flow cell 1 could act as a control to subtract any interaction with the analyte and the chip surface. Both single and multi-cycle runs were utilised using wizards developed in the Biacore X100 control software which are both accepted methods of kinetic analysis (Karlsson, R., et al. Analyzing a kinetic titration series using affinity biosensors (2006) Analytical Biochemistry 349:136-47). The multi-cycle protocol was as follows-Three start-up cycles composed of an initial capture, to the desired level, of the scAb to be tested was performed followed by a 30 s injection of glycine buffer pH 2.0 after each cycle to regenerate the chip surface. The regeneration step removed any captured scAb whilst leaving the capture antibody intact and able to repeat the capture for the next cycle. Following three start-up cycles increasing concentrations (0.15625 nM-100 nM) of the target to be tested were added to the chip surface after the desired scAb capture. The target was added for a 120 s association period and 420 s dissociation period followed by another regeneration, 30 s injection of glycine buffer pH 2.0 in between each cycle.
The single cycle kinetics protocol was similar and utilised the same level of scAb capture. Three start-up cycles were used followed by 5 increasing concentrations of the analyte (6.25 nM-100 nM) for an association period of 120 s followed by a dissociation period of 420 s for each concentration. In single cycle kinetics the regeneration step was performed only after the final analyte concentration was added. Binding responses were analysed in Biacore X100 evaluation software and data fitted to a 1:1 binding model to obtain kinetic and affinity characterisation.

[2] = test system: hT40, dGA, dGAE and truncated tau fragments; assay: Binding ELISA / epitope mapping of anti-tau scAbs with truncated tau proteins and 13mer peptides; set-up: species or system human; details: for Tau proteins/fragments with positive scAb reactivity: binding ELISA; for binding region on hT40: amino acid residues of hT40; for Binding region hT40: second Table 26, own antibodies
Procedure, shortened: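 Serially double-diluted scAbs were applied to 2% MPBS-blocked wells carrying either 1 μg/ml full-length or truncated tau, or biotinylated 13mer peptides (1 μg/ml) captured on 5 μg/ml streptavidin. Absorbance after HRP anti-human C kappa secondary gave the binding signal.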

[3] = Table 16, NS, S and M clones, incl. 13mer peptides
[4] = Table 26 summary, top scAbs, residues of hT40
[5] = residue numbers of SEQ ID NO: 1 (hT40), CDR Tables 1-11
[6] = Table 15, residue numbers of hT40

dGA (SEQ ID NO: 5), sequence (P10636 614-707): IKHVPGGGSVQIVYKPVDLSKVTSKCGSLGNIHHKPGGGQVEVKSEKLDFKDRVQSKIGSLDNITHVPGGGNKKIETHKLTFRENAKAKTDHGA
T1 sequence (P10636 1-441 isoform P10636-8): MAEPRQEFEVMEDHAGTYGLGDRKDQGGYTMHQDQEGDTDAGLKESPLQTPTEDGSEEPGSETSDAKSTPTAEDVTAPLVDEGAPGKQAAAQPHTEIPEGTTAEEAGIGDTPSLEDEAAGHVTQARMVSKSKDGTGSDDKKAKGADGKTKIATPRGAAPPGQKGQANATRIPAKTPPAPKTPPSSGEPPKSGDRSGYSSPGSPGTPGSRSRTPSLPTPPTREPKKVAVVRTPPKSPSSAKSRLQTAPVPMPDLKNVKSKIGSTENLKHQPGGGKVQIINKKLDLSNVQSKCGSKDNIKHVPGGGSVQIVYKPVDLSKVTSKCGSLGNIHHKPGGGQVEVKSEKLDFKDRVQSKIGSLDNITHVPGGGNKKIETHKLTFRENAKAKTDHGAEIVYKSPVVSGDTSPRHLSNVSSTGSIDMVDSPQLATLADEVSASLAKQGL

| Molecule | ka [1] | kd [1] | ka (dGA (SEQ ID NO: 5)) | Kd (dGA (SEQ ID NO: 5)) | Tau proteins/fragments with positive scAb reactivity ([2]; Table 16, NS, S and M clones) | Shortest region bound on hT40 [2, 3] | Epitope [2, 4] | binding region on hT40 [2] | Epitope [2, 5] | Binding region hT40 [2] | cross-reactivity using hT40, dGA and dGAE antigens ([2]; ELISA, 'E' group scAbs) | Tau proteins/fragments with positive scAb reactivity [2, 6] | Shortest region bound on hT40 [2, 6] | Tau proteins/fragments with positive scAb reactivity ([2]; Table 17, 'C' group scAbs) | Shortest region bound on hT40 ([2]; Table 17, 'C' group scAbs, incl. 13mer peptides) | Epitope ([2]; Table 26 summary, top scAbs, residues of hT40, listed as E1B8) | binding region on hT40 ([2]; listed as E1B8 scAb) | hT40 binding region ([2]; second Table 25, mAb format) | Detection scAb (Epitope) ([2]; Table 28 (LoD table), residues of hT40) |
| --- | --- | --- | --- | --- | --- | --- | --- | --- | --- | --- | --- | --- | --- | --- | --- | --- | --- | --- | --- |
| S1D12: sheep-derived anti-tau core clone; scFv SEQ ID NO: 32, VH 443, VL 444 (protein, S1D12 amino acid sequence) scFv: QVQLQESGPSLVKPSQTLSLTCTVSGFSLNNNAVGWVRQAPGKVPESLVGCSSDGTCYYNSALKSRLDITRDTSKNQISLSLSSVTTDDAAVYYCTRGHYSIYGYDYLGTIDYWGPGLLVTVSSEGKSSGASGESKVDDQAVLTQPSSVSGSLGQRVSITCSGSSSNVGGGNSVGWYQHLPGSGLKTIIYDTNSRPSGVPDRFSGSRSGNTATLTINSLQAEDEGDYYCVTGDSTTHDDLVGSGTRLTVLG | 1.252e+06 M⁻¹ s⁻¹ | 0.00015 s⁻¹ | 1.21e+06 M⁻¹ s⁻¹ | 0.000418 s⁻¹ | hT40, 297-390 (dGA), 297-391 (dGAE), 186-350, 266-359, 337-368 | 337-355 | 337-349 | 337-355 | 337-355 | (Binding region hT40 337-355) |  |  |  |  |  |  |  |  |  |
| CE2: anti-tau core clone, Table 10; SEQ ID NO: 366 (protein, CE2/E1B8 amino acid sequence) scFv: QVQLQESGPSLVKPSQTLSLTCTVSGFSLTNYPVGWVRQAPGKALEWIGNIENDGSANYASALKSRLSITRDTSKNQVSLSLSSATTEDTAVYYCGREFGGSDGYTYFVDIDYWGPGLLVTVSSEGKSSGASGESKVDDQAVLTQPSSVSKSLGQSVSITCSGSSSNVGYGNYVSWFQQVPGSAPKILIYGATSRASGVPDRFSGSRSGNTATLTITSLQAEDEADYYCASYDGSSSGVFGSGTRLTVLG | 213700 M⁻¹ s⁻¹ | 0.001077 s⁻¹ | 137000 M⁻¹ s⁻¹ | 0.00242 s⁻¹ |  |  | 319-331 |  | 319-331 |  | cross-reacts with dGA | 297-390 (dGA), 297-391 (dGAE), 313-336 | 313-336 | hT40, 266-359 (R1-3) | 319-331 | 316-336 | 313-336 | 319-331 |  |
| S1G2: sheep-derived anti-tau core clone; scFv SEQ ID NO: 81, VH 455, VL 456 (protein, S1G2 amino acid sequence) scFv: QVQLQESGPSLVKPSQTLSLTCTVSGFSLTSNSVGWVRQAPGKAPEWVAGIDTDGEEGYNPALNSRLSITRDTSKSQVSLSLSSVTSEDTAVYYCGRSYRADGLAYGYVQAIDYWGPGLLVTVSSEGKSSGASGESKVDDQAVVTQPSSVSGSLGQRVSITCSGSFIGISSVGWFQQLPGSGLRTIIVASDGRPSGVPDRFSMSKSGNTATLTISSLQAEDEADYFCGSSDRTPYTGVFGSGTRLTVLG | 1.057e+06 M⁻¹ s⁻¹ | 0.00018 s⁻¹ | 783000 M⁻¹ s⁻¹ | 0.0003499 s⁻¹ | hT40, 297-390 (dGA), 297-391 (dGAE), 369-390, 369-391 | 367-379 | 367-379 | 367-379 |  | (Binding region hT40 367-379) |  |  |  |  |  |  |  |  | S1G2 (367-379) |
